Source: article doi:10.1101/2022.07.11.499577 (bioRxiv, 2022)

B1: Eaf1 (natural protein)
chain: MSSRPSSAVPNSASLSEDQSSDRSKFPKADDLIDERDRKLTELYCVSRLNQLLELTDENKLRKEIDAFLKKNDIRRGIRFDEASLPKLLHTAATPITKKKLKDVNLINVPNQRLSDSKMSRELPENSENVSVKSESHFVPSHDNSIRENMMDSLRPAEKTGGMWNKRPLESTMGGEEERHEKRQKMQSQSLESSNNSEMASLPISPRPPVPNALAHYTYYENIEYPPADPTEVQPAVKFKDPLIKNIMAKEIDTSDHYNENNVDALETVFLLMNDYIPSKIPQALPLAELKYMSQTLPLINLIPRAHKALTTNIINNALNEARITVVGSRIEELRRLGLWSLRQPKRFIDPWKQHNTHQNILLEEAKWMQADFKEGHKYKVAICTAMAQAIKDYWTYGEICCVKRKTLLPGKENKLSDDGRISEKSGRPSDTSRNDSDISIAGKDDIGIIANVDDITEKESAAANDNDENGKNEAGAKSDFDFADGLLSQEGAHDQIISSIDTKLLLKKPSSSSEVVLIQHEVAASSALIETEESKKELAPPFKLSIFVDELNTFEKTLIQDLPLYNGINEERPKKDDSLPFIPISKSVVSLDDNGFYKLLERQLIDEEPSISQLSKRRGMFYGNRRNHYLRPPAVPSLRYLQNRTPTIWLSEDDQELVKNINTYGYNWELISAHMTHRLTYSYLSNIERRTPWQCFERFVQLNERFNFSDLKGPRAHSAQQWLIEAHKFQQRQNRRISPLGVNTESIQRGHRRLRWASMFEAIRKCMKKRENTPRPNPTQPRKPLDCKNMKVPTPAEMSLLKAQRDEALRRDIQLRRTVKNRLQQRQQQSQQAHSSRAQSPIPSNGKSSSNLARNGQASAPRPNQKQYTEQDIIESYSRKLLEQKPDIGPEMALKAAKNYYRTLREQQQQLKQHQIQQQRQQLQEESSHVQQLQQLQPGSQAPPPKSSPSQSSLSNISNINSAPRIKSPTPQEILQRFQKQ

Tests used:
[1] = molecular target: B1; test: affinity purification with mass spectrometry
[2] = molecular target: Tra1 (S. cerevisiae, UniProt P38811 1-3744); test: cryo-EM structure
Sequence of Tra1 (P38811 whole entry): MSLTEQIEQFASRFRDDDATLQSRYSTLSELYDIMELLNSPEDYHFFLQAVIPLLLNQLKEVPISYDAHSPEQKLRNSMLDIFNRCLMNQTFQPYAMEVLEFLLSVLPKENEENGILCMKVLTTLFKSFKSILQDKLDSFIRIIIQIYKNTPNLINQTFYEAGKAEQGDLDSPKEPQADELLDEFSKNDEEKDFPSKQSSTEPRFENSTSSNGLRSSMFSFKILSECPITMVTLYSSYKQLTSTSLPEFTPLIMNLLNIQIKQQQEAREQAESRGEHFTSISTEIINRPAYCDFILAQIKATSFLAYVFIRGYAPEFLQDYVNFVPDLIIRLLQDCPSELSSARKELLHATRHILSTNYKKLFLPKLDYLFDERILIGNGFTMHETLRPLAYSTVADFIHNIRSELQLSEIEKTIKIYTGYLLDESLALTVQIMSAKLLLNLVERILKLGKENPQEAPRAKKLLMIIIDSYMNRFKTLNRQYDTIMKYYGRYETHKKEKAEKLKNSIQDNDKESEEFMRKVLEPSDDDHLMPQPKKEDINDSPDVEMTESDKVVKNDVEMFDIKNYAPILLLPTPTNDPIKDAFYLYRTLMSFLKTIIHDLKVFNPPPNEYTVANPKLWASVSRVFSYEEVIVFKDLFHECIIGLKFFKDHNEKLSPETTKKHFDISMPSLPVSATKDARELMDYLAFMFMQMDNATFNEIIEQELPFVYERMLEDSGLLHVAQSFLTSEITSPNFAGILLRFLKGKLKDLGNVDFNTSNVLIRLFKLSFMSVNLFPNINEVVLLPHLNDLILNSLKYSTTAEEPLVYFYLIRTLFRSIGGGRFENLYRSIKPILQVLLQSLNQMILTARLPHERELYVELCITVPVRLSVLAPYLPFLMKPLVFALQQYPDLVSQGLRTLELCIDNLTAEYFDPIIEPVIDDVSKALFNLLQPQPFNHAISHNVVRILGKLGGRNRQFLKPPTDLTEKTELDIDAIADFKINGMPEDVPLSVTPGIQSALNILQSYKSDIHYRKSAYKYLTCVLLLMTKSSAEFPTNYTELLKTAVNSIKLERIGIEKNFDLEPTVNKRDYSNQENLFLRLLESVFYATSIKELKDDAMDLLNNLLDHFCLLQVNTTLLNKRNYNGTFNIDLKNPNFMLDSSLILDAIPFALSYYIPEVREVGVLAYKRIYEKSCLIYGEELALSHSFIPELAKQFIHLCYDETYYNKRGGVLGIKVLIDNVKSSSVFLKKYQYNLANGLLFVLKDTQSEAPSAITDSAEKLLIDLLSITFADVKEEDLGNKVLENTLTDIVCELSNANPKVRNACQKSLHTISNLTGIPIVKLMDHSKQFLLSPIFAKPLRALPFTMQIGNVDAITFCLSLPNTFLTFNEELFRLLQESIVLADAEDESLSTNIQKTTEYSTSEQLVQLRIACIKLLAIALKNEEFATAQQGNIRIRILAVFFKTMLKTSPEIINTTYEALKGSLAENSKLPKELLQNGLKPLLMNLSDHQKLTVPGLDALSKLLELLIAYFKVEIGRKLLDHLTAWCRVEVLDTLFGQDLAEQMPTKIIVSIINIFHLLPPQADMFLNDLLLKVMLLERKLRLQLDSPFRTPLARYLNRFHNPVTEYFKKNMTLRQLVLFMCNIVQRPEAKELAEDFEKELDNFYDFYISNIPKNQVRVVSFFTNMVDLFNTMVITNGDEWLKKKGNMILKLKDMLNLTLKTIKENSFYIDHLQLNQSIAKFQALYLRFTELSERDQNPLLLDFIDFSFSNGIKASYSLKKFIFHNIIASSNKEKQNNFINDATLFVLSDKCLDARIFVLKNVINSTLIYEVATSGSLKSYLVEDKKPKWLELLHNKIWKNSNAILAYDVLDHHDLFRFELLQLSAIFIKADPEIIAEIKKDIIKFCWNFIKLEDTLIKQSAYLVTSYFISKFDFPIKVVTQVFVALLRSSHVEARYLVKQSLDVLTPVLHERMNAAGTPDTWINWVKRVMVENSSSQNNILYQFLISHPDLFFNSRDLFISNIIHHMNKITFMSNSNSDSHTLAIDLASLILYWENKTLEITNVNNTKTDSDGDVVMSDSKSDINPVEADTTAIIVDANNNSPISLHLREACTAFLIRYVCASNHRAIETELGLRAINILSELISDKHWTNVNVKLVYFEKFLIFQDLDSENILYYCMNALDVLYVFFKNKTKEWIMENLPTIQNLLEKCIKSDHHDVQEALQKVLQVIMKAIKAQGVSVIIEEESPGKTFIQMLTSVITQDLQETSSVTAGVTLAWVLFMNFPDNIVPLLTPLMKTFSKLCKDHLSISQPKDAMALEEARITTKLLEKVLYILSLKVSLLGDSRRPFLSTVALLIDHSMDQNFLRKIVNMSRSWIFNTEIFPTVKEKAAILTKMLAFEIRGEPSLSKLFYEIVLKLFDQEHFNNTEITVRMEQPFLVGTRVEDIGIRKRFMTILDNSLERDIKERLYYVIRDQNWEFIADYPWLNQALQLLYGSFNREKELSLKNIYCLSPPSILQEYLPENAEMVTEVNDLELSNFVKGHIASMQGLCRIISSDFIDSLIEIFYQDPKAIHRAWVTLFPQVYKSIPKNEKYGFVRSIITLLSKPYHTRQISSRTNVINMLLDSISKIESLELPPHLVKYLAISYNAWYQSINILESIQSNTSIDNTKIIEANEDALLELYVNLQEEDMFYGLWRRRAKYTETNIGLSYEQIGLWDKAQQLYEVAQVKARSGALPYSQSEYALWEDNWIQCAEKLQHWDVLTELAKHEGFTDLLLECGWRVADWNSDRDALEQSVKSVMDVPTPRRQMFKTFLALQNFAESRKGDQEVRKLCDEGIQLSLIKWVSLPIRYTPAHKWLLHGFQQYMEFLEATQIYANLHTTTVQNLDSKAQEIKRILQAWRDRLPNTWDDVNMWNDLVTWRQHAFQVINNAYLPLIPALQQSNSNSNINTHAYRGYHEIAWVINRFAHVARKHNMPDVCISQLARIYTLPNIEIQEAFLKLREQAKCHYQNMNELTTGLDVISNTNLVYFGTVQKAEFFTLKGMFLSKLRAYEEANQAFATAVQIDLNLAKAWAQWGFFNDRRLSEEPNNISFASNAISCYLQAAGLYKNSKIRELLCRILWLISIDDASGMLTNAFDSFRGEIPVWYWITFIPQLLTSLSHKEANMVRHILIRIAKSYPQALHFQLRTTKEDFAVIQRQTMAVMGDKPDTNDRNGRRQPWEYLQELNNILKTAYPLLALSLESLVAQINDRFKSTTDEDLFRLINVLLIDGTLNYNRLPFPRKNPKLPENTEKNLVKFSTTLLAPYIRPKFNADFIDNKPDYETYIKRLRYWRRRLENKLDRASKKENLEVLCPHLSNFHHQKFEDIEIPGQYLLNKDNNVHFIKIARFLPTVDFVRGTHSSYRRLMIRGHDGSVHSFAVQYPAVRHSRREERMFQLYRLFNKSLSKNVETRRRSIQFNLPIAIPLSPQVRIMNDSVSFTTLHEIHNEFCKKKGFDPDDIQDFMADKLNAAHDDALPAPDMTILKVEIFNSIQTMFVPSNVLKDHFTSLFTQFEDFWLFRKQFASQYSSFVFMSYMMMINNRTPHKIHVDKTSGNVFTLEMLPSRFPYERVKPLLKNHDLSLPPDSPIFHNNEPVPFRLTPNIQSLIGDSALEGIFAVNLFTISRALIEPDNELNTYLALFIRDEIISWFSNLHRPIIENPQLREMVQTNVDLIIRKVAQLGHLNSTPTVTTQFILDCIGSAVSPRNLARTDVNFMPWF

[3] = molecular target: B1; test: cryo-EM structure

binding result [1] | binding result [2] | binding result [3] | Binder
binds |  |  | Epl1 with a TAP tag fused to the C-terminus (natural protein) MPTPSNAIEINDGSHKSGRSTRRSGSRSAHDDGLDSFSKGDSGAGASAGSSNSRFRHRKISVKQHLKIYLPNDLKHLDKDELQQREVVEIETGVEKNEEKEVHLHRILQMGSGHTKHKDYIPTPDASMTWNEYDKFYTGSFQETTSYIKFSATVEDCCGTNYNMDERDETFLNEQVNKGSSDILTEDEFEILCSSFEHAIHERQPFLSMDPESILSFEELKPTLIKSDMADFNLRNQLNHEINSHKTHFITQFDPVSQMNTRPLIQLIEKFGSKIYDYWRERKIEVNGYEIFPQLKFERPGEKEEIDPYVCFRRREVRHPRKTRRIDILNSQRLRALHQELKNAKDLALLVAKRENVSLNWINDELKIFDQRVKIKNLKRSLNISGEDDDLINHKRKRPTIVTVEQREAELRKAELKRAAAAAAAAKAKNNKRNNQLEDKSSRLTKQQQQQLLQQQQQQQQNALKTENGKQLANASSSSTSQPITSHVYVKLPSSKIPDIVLEDVDALLNSKEKNARKFVQEKMEKRKIEDADVFFNLTDDPFNPVFDMSLPKNFSTSNVPFASIASSKFQIDRSFYSSHLPEYLKGISDDIRIYDSNGRSRNKDNYNLDTKRIKKTELYDPFQENLEIHSREYPIKFRKRVGRSNIKYVDRMPNFTTSSTKSACSLMDFVDFDSIEKEQYSREGSNDTDSINVYDSKYDEFVRLYDKWKYDSPQNEYGIKFSDEPARLNQISNDTQVIRFGTMLGTKSYEQLREATIKYRRDYITRLKQKHIQHLQQQQQQQQQQQQQAQQQKQKSQNNNSNSSNSLKKLNDSLINSEAKQNSSITQKNSS
 | binds |  | B1
 | binds | binds | Eaf2/Swc4 (natural protein) MSSSDIFDVLNIKQKSRSPTNGQVSVPSSSAANRPKPQVTGMQRELFNLLGENQPPVVIKSGNNFKEKMLSTSKPSPWSFVEFKANNSVTLRHWVKGSKELIGDTPKESPYSKFNQHLSIPSFTKEEYEAFMNENEGTQKSVESEKNHNENFTNEKKDESKNSWSFEEIEYLFNLCKKYDLRWFLIFDRYSYNNSRTLEDLKEKFYYTCRNYFKASDPSNPLLSSLNFSAEKEIERKKYLQRLLSRSAAEIAEEEALVVESKKFEMAAKRTLAERESLLRLLDSPHSDQTITQYLTSQGMSQLYNALLADKTRKRKHDLNIPENPWMKQQQQFAQHRQLQQLNVKKSEVKENLSPKKTKRQRQEMQTALKRKSESAYAEQLLKDFNSDERKALGVITHGEKLSPGVYLRSTKLSTFKPALQNKILAILQELSLPSRPVMPSFDVMERQEELLKKINTLIDLKKHVDKYEAGMSITK
